Patent publication US20210290602A1
Where a chain is given by its changes, count along the chain named. Names and notes keep the numbering of the source. Blank lines part the entries; values can stand above or below the binder they belong to.

Legend:
[1] = molecular target: T1, purified recombinant CSPα^WT (E. coli, GST removed by TEV protease) (Homo sapiens (Human)), Q9H3Z4; assay: self-oligomerization of purified recombinant protein, SDS-PAGE and quantitative anti-CSPα immunoblot; settings: remark: other sources report otherwise
T1 chain: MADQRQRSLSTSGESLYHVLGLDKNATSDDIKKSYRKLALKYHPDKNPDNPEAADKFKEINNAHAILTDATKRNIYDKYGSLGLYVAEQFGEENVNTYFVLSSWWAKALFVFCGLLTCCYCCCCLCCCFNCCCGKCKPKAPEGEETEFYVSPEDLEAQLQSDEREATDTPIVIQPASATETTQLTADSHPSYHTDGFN

[2] = molecular target: T2, purified recombinant CSPα^L115R (E. coli, GST removed by TEV protease) (Homo sapiens (Human)), Q9H3Z4; assay: as above; settings: remark: other sources report otherwise
T2 chain: T1 chain with L115R

percent of protein existing as oligomers [1]: 75%
B1: purified recombinant CSPα^WT (E. coli, GST removed by TEV protease), Q9H3Z4 1-198 (protein)
chain: T1 chain
modifications: here or on the partner: Fe-S clusters bound at the Cys-string of the E. coli protein. No palmitoylation in bacteria.; Fe-S clusters bound at the Cys-string of the E. coli protein. No palmitoylation in bacteria.

percent of protein existing as oligomers [2]: 75%
B2: purified recombinant CSPα^L115R (E. coli, GST removed by TEV protease), Q9H3Z4 1-198 (protein)
chain: T1 chain with L115R
modifications: here or on the partner: Fe-S clusters bound at the Cys-string of the E. coli protein.; Fe-S clusters bound at the Cys-string of the E. coli protein.
